According to paper PMC10419011:
One block for each substance: values may come before it.

Key:
[1] = target: FLAG-CRF1R-eGFP_N1 (wild-type corticotropin-releasing factor receptor 1, R2 isoform) (human (by the printed accession)) (UniProt P34998); experiment: FRET or BRET; arrestin recruitment in live HEK293 cells: Nluc-arr3 (donor) and FLAG-CRF1R-eGFP (acceptor), stimulated with CRF (up to 10 µM)
[2] = target: FLAG-CRF1R-eGFP_N1 C188^3.29A (human (by the printed accession)) (UniProt P34998); experiment: as above
FLAG-CRF1R-eGFP_N1 C188^3.29A (human (by the printed accession)), sequence (P34998 24-415 C188A): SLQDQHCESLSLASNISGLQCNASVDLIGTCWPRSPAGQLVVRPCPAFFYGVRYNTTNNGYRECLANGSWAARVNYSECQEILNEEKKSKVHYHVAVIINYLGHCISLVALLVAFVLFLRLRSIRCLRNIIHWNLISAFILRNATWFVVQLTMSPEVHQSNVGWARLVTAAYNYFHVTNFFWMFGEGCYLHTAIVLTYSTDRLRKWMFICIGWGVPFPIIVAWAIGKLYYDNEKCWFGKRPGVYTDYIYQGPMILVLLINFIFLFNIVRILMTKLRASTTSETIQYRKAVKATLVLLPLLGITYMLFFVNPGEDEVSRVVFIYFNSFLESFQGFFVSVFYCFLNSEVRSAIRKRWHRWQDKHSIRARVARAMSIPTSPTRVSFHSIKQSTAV

[3] = target: Y1R-eYFP_N1 (wild-type neuropeptide Y1 receptor) (human) (UniProt P25929); experiment: FRET or BRET; arrestin recruitment in live HEK293 cells: Nluc-arr3 (donor) and receptor-eYFP (acceptor) co-transfected, stimulated with NPY (0.01 nM to 10 µM), HBSS with 20 mM HEPES pH 7.4, read 5, 10 and 15 min after stimulation
Y1R-eYFP_N1 (wild-type neuropeptide Y1 receptor) (human), sequence (P25929 whole entry): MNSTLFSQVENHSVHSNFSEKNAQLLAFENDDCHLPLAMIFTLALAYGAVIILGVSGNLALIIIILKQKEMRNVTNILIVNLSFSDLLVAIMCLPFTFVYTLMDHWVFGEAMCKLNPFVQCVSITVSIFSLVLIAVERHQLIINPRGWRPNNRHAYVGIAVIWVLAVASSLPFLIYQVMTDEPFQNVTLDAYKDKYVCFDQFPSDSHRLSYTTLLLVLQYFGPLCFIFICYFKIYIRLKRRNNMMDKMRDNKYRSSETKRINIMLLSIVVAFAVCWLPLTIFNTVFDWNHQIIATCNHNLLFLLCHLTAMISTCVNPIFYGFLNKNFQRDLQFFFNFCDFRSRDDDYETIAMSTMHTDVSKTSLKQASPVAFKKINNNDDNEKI

[4] = target: HA-Y2R-eYFP_N1 (wild-type neuropeptide Y2 receptor) (human) (UniProt P49146); experiment: as above
[5] = target: MOR-eYFP_pVitro2 (wild-type µ-type opioid receptor) (UniProt P35372); experiment: FRET or BRET; arrestin recruitment in live HEK293 cells: Nluc-arr3 (donor) and MOR-eYFP (acceptor), stimulated with endomorphin-1 (0.01 nM to 10 µM)
[6] = target: MOR-eYFP_pVitro2 (wild-type µ-type opioid receptor) (UniProt P35372); experiment: FRET or BRET; arrestin recruitment in live HEK293 cells: Nluc-arr3 (donor) and MOR-eYFP (acceptor), stimulated with β-endorphin (0.01 nM to 10 µM)
[7] = target: AT1R-eYFP_N1 (wild-type angiotensin II type 1 receptor) (UniProt P30556); experiment: FRET or BRET; arrestin recruitment in live HEK293 cells: Nluc-arr3 (donor) and AT1R-eYFP (acceptor), stimulated with agonist peptide (angiotensin II; 0.01 nM to 10 µM)
AT1R-eYFP_N1 (wild-type angiotensin II type 1 receptor), sequence (P30556 whole entry): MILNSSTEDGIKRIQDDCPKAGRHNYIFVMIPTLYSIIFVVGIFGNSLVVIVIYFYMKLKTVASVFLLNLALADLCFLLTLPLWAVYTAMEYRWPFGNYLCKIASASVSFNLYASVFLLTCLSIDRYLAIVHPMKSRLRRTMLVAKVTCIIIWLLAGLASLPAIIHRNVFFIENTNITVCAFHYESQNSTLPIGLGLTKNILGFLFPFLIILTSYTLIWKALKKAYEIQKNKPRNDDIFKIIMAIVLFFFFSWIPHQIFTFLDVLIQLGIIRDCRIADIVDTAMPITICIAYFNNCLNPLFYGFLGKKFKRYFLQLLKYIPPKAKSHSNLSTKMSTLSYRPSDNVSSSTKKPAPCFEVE

[8] = target: Nluc-Y1R-eYFP_N1 C113^3.25A (human) (UniProt P25929); experiment: FRET or BRET; NanoBRET ligand binding: membrane preparations of HEK293 cells with Nluc-Y1/2R-eYFP, TAMRA-labeled peptide titrated, 10 min at room temperature, HBSS with 20 mM HEPES pH 7.4, 0.1% BSA; unspecific binding (excess unlabeled NPY or antagonist) subtracted; biphasic fit
Nluc-Y1R-eYFP_N1 C113^3.25A (human), sequence (P25929 whole entry C113A): as the sequence (P25929 whole entry) above, with C113A counted along it

[9] = target: Nluc-Y2R-eYFP_N1 (wild-type neuropeptide Y2 receptor) (human) (UniProt P49146); experiment: as above
[10] = target: Y1R-eYFP_N1 C113^3.25A (human) (UniProt P25929)
Y1R-eYFP_N1 C113^3.25A (human), sequence (P25929 whole entry C113A): as the sequence (P25929 whole entry) above, with C113A counted along it

[11] = target: Y1R-eYFP_N1 C198^45.50A (human) (UniProt P25929)
Y1R-eYFP_N1 C198^45.50A (human), sequence (P25929 whole entry C198A): as the sequence (P25929 whole entry) above, with C198A counted along it

[12] = target: HA-Y2R-eYFP_N1 C203^45.50A (human) (UniProt P49146)
[13] = target: HA-Y2R-eYFP_N1 C123^3.25A (human) (UniProt P49146)

Nluc-tagged bovine arrestin3, sequence (P32120 whole entry): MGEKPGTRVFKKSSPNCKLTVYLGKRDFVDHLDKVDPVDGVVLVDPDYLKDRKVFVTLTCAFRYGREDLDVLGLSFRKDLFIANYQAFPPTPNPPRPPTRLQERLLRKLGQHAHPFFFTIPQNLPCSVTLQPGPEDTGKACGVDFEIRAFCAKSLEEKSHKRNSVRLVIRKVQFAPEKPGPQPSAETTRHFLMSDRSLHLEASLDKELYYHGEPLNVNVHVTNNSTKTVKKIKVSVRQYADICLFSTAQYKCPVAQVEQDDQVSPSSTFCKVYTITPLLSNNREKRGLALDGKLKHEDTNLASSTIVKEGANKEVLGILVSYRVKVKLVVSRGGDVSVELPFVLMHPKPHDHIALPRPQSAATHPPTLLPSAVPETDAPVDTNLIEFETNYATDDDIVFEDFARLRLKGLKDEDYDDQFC
FLAG-CRF1R-eGFP_N1 (wild-type corticotropin-releasing factor receptor 1, R2 isoform) (human (by the printed accession)), sequence (P34998 24-415): as the sequence (P34998 24-415 C188A) above, with A165C counted along it

- EC50 of the agonist CRF for arrestin3 recruitment [1]: 37 nM
- fold shift in the agonist's EC50 for arrestin3 recruitment against wild-type CRF1R [2]: 8 fold
- EC50 of the agonist NPY for arrestin3 recruitment [3]: 8 nM
- EC50 of the agonist NPY for arrestin3 recruitment [4]: 96 nM
- EC50 of the agonist endomorphin-1 for arrestin3 recruitment [5]: 375 nM
- EC50 of the agonist β-endorphin for arrestin3 recruitment [6]: > 3000 nM
- EC50 of the agonist for arrestin3 recruitment [7]: 3.6 nM
Substance: Nluc-tagged bovine arrestin3 (from UniProt P32120 1-420) (natural protein)

- fold shift in Kd against wild-type Y1R [8]: 7 fold
- Kd of the high-affinity state [9]: 2.3 nM
- Kd of the low-affinity state [9]: 267 nM
Substance: K^18-TAMRA-NPY (peptide)

- inositol monophosphate accumulation via chimeric G-protein: shift of EC50 against wild-type Y1R (41% loss of Emax) [10]: 26 fold
- inositol monophosphate accumulation via chimeric G-protein: shift of EC50 against wild-type Y1R (57% loss of Emax) [11]: 50 fold
- cAMP reporter gene assay (Gi/o pathway): shift of the EC50 of NPY against wild-type Y2R; full activation at 10 µM NPY [12]: 10000 fold
- cAMP reporter gene assay (Gi/o pathway): shift of the EC50 of NPY against wild-type Y2R; full activation at 10 µM NPY [13]: 10000 fold
Substance: neuropeptide Y (NPY) (from UniProt P01303 29-64)
